These results are taken from article PMC8928434, “Production of Putrescine and Cadaverine by Paucilactobacillus wasatchensis” (Frontiers in Microbiology, 2022).

By Km is commonly meant the substrate concentration at which the rate is half of its maximum. Usually kcat stands for the number of substrate molecules converted per active site and unit of time at saturation.

One data set deals with Odc2_C19 (Odc2). The settings on record: 50 mM phosphate pH 5.5, 50 μM pyridoxal 5'-phosphate, 37°C; substrate 1-50 mM. The source says:
HPLC of o-phthalaldehyde-derivatized amine product (decarboxylation), Michaelis-Menten fit on Odc2_C19 (Odc2)

Substrate in data set [1]: NCCCC[C@H](N)C(=O)O
Kind of data set: HPLC of o-phthalaldehyde-derivatized amine product (decarboxylation), Michaelis-Menten fit. It counts as biochemical, Paucilactobacillus wasatchensis. The settings on record: 50 mM phosphate pH 5.5, 50 μM pyridoxal 5'-phosphate, 37°C, substrate 1-50 mM.

Take `NCCCC[C@H](N)C(=O)O` [L-Lysine]: in the data set on Odc2_C19 (Odc2), the Km was 20.2 mM.

B1: Odc1_Lw35 (Odc1) (Paucilactobacillus wasatchensis) (protein)
chain: MKLLGIACSEEAQKYFKTTRDIIDAEKDSDFTDVAAIVLTEDDLDLINKIDETHFDIPVFLITNDAAKIDKDLRAKIYHLIDDDAKYTNMYDGEIEAAAVEYEKKMMPPFFEELQKYADEGNLSFTTPGHHAGKFFMRHPAGRWLVNYYGENLFRSDLSSSDVAVGDLLTHGGAPLSAEQHAAKVFNADKTYFVMNGTSTSNAIVTSAAVAPGDLVLFDRNNHKSSYISALENAGGIPIYLQTERNPFGFIGGISDAVFNEKHIRELIAKVDPKRAKEKRPIRLAIIELGTYDGSIYDARQVVDRIGSLCDYIQFDSAWVGYEQFIPMMKPSSPLLLDLGPEDPGILVTQSVHKQQAALSQGSQIHKKDKHIKGQKRYITHKRFNNAYMKYTSTSPFYPMYASLDVNAYLMEGKAGAEMWKNTVKLGIEARKRMLNESKLFTPFIPTVVNGKKWEDGDTEEMADNLDFWRFKKGESWHSFEGYADNQYYIDPLKVMFKTPGINMETGEYEDFGIPATILASYLREHGIVPEKSDLNSILFLLTPAETKTKLDNLVNLILRFEDLIEKDEKLENVLPHVYADNASRYRGYTIRQLCQEMHNFYKQSNAKKFQKELFQEATLPEQAMTPYAADKELIRNNAELIPLQDIVGRVALEGGLPYPPGIFVIAPGERWTESAQKYFLILQDGINQFPGFSPEIQGVYNEPQADGKVKAYGYVLDDESVIKKN
notes: full length (native 726 aa), C-terminal His-tag (pEG-His1, BamHI/SalI), E. coli BL21(DE3), Ni-TED purified
B1: in data set [1], the Km came to 16.0 ± 1.8 mM and the kcat stood at 3 ± 0.1 s⁻¹.
